In article PMC9482650, “Quantitative fragmentomics allow affinity mapping of interactomes” (Nature Communications, 2022):

Tests used:
Assay in all cases: holdup assay
Design in all cases: key: below the threshold = too weak to quantify, mostly under pKd 3.1 to 4
Settings in all cases: plain residues with an end cap or a label only (N-terminal biotin on a linker: ado-ado)
Inadl_6, Q8NI35 = biological target: Inadl_6, Q8NI35
PTPN13_1, Q12923 = biological target: T1, PTPN13_1, Q12923
T1 sequence (Q12923 1088-1188, limits assumed, looked up): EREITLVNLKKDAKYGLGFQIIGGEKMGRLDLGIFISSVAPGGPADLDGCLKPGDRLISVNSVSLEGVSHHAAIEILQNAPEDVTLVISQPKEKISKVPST

LIN7C, Q9NUP9 = biological target: T2, LIN7C, Q9NUP9
T2 sequence (Q9NUP9 88-185, limits assumed, looked up): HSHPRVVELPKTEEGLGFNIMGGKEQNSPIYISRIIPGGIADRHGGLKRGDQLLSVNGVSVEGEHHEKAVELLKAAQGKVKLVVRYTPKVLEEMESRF

DLG3_2, Q92796 = biological target: T3, DLG3_2, Q92796
T3 sequence (Q92796 221-321, limits assumed, looked up): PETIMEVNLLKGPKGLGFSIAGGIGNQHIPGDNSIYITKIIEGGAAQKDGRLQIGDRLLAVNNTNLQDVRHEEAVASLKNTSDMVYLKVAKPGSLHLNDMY

LAP2, Q96RT1 = biological target: LAP2, Q96RT1
Chain of LAP2, Q96RT1 (Q96RT1 other isoform, or with tags, fused parts or gaps): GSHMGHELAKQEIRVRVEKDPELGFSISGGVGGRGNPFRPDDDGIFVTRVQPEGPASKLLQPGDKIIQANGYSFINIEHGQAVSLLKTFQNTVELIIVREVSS

PICK1, Q9NRD5 = biological target: PICK1, Q9NRD5
Chain of PICK1, Q9NRD5 (Q9NRD5 17-115): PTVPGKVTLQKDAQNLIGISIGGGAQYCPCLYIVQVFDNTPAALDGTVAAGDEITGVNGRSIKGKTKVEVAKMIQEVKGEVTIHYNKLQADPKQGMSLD

Inadl_1, Q8NI35 = biological target: Inadl_1, Q8NI35
Chain of Inadl_1, Q8NI35 (Q8NI35 113-229): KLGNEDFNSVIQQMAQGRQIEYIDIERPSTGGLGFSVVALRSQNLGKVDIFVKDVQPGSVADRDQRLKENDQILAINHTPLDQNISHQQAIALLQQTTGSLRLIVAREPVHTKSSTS

Inadl_5, Q8NI35 = biological target: Inadl_5, Q8NI35
Chain of Inadl_5, Q8NI35 (Q8NI35 673-780): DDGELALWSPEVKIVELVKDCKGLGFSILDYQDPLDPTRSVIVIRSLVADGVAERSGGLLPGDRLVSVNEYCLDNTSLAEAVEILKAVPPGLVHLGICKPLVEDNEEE

SCRIB_3, Q14160 = biological target: SCRIB_3, Q14160
Chain of SCRIB_3, Q14160 (Q14160 999-1103): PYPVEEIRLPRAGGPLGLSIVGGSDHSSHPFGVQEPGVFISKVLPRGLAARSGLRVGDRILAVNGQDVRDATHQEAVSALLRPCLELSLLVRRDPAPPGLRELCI

RADIL, Q96JH8 = biological target: T4, RADIL, Q96JH8
T4 sequence (Q96JH8 971-1071, limits assumed, looked up): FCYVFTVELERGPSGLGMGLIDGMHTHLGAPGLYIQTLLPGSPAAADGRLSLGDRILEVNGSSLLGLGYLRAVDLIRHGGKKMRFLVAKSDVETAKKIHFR

MAGI2_5, Q86UL8 = biological target: MAGI2_5, Q86UL8
Chain of MAGI2_5, Q86UL8 (Q86UL8 915-1017): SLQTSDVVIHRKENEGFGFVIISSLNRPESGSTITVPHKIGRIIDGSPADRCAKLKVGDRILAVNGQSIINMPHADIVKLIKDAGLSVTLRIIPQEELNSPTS

FRMPD2_3, Q68DX3 = biological target: FRMPD2_3, Q68DX3
Chain of FRMPD2_3, Q68DX3 (Q68DX3 1073-1166): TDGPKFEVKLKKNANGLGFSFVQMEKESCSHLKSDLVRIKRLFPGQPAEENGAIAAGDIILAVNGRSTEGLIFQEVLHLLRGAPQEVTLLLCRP

DLG3_3, Q92796 = biological target: T5, DLG3_3, Q92796
T5 sequence (Q92796 374-475, limits assumed, looked up): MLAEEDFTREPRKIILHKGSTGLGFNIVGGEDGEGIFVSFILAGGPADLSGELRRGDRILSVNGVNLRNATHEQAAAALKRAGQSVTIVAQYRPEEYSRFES

MAST1, Q9Y2H9 = biological target: MAST1, Q9Y2H9
Chain of MAST1, Q9Y2H9 (Q9Y2H9 962-1065): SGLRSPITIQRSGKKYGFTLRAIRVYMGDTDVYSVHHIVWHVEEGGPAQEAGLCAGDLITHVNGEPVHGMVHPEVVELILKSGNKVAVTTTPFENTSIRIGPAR

Inadl_4, Q8NI35 = biological target: Inadl_4, Q8NI35
Chain of Inadl_4, Q8NI35 (Q8NI35 547-651): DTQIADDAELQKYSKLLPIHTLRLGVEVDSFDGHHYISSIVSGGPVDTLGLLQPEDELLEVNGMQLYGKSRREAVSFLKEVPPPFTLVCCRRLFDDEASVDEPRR

MPP7, Q5T2T1 = biological target: T6, MPP7, Q5T2T1
T6 sequence (Q5T2T1 134-230, limits assumed, looked up): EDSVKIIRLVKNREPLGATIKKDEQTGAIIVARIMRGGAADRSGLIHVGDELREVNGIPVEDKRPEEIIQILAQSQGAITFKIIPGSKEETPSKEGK

IL16_3, Q14005 = biological target: IL16_3, Q14005
Chain of IL16_3, Q14005 (Q14005 1107-1207): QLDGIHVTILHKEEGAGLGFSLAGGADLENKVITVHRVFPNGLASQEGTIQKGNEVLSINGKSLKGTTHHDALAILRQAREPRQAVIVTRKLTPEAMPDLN

DFNB31_2, Q9P202 = biological target: T7, DFNB31_2, Q9P202
T7 sequence (Q9P202 274-371, limits assumed, looked up): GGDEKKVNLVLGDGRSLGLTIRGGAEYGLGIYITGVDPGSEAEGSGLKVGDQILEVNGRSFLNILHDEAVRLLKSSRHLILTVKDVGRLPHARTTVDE

MAGI2_2, Q86UL8 = biological target: MAGI2_2, Q86UL8
Chain of MAGI2_2, Q86UL8 (Q86UL8 410-522): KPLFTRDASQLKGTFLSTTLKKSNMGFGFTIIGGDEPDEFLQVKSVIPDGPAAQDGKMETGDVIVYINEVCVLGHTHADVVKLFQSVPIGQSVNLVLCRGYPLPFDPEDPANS

TX1BP3, O14907 = biological target: T8, TX1BP3, O14907
T8 sequence (O14907 10-122, limits assumed, looked up): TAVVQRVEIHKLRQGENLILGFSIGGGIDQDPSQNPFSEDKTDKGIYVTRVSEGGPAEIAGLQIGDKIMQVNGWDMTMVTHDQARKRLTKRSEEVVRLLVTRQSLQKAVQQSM

DFNB31_3, Q9P202 = biological target: T9, DFNB31_3, Q9P202
T9 sequence (Q9P202 811-907, limits assumed, looked up): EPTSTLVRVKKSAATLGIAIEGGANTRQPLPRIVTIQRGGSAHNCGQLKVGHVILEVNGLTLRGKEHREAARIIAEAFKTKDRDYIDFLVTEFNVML

GRIP2_4, Q9C0E4 = biological target: GRIP2_4, Q9C0E4
Chain of GRIP2_4, Q9C0E4 (Q9C0E4 446-548): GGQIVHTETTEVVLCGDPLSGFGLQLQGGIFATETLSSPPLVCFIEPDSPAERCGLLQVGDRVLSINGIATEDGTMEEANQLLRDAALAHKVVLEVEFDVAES

PDZD2_2, O15018 = biological target: T10, PDZD2_2, O15018
T10 sequence (O15018 329-429, limits assumed, looked up): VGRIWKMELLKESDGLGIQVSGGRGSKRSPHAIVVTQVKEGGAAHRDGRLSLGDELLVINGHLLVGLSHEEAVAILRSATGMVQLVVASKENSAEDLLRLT

DLG4_3, P78352 = biological target: DLG4_3, P78352
Chain of DLG4_3, P78352 (P78352 306-403): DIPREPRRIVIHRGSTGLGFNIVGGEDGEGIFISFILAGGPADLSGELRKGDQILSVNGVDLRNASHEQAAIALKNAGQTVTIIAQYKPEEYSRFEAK

NOS1, P29475 = biological target: NOS1, P29475
Chain of NOS1, P29475 (P29475 9-101): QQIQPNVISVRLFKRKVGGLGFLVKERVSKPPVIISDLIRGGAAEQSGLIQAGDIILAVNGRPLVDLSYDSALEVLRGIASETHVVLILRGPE

HTRA4, P83105 = biological target: T11, HTRA4, P83105
T11 sequence (P83105 378-476, limits assumed, looked up): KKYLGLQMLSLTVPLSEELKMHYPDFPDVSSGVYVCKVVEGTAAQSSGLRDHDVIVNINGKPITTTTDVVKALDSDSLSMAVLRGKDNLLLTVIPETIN

HTRA2, O43464 = biological target: HTRA2, O43464
Chain of HTRA2, O43464 (O43464 355-458): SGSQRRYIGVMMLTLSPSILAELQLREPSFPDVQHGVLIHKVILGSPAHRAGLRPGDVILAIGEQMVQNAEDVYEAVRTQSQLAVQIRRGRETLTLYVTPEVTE

Chain of Inadl_6, Q8NI35 (Q8NI35 1058-1167): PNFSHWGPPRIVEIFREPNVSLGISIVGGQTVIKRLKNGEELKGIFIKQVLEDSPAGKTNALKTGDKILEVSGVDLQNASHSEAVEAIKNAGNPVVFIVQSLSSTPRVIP

EGGKKRESEA [APPL1, Q9UKG1]
pKd (Inadl_6, Q8NI35): below the threshold
pKd (PTPN13_1, Q12923): below the threshold
pKd (LIN7C, Q9NUP9): below the threshold
pKd (DLG3_2, Q92796): 4.22
pKd (LAP2, Q96RT1): 3.59
pKd (PICK1, Q9NRD5): below the threshold
pKd (Inadl_1, Q8NI35): below the threshold
pKd (Inadl_5, Q8NI35): below the threshold
pKd (SCRIB_3, Q14160): 3.82
pKd (RADIL, Q96JH8): below the threshold
pKd (MAGI2_5, Q86UL8): below the threshold
pKd (FRMPD2_3, Q68DX3): below the threshold
pKd (DLG3_3, Q92796): below the threshold
pKd (MAST1, Q9Y2H9): 4.12
pKd (Inadl_4, Q8NI35): below the threshold
pKd (MPP7, Q5T2T1): below the threshold
pKd (IL16_3, Q14005): below the threshold
pKd (DFNB31_2, Q9P202): below the threshold
pKd (MAGI2_2, Q86UL8): below the threshold
pKd (TX1BP3, O14907): below the threshold
pKd (DFNB31_3, Q9P202): below the threshold
pKd (GRIP2_4, Q9C0E4): below the threshold
pKd (PDZD2_2, O15018): below the threshold
pKd (DLG4_3, P78352): below the threshold
pKd (NOS1, P29475): below the threshold
pKd (HTRA4, P83105): below the threshold
pKd (HTRA2, O43464): below the threshold

VGIERETDVL [EZH1, Q92800]
pKd (Inadl_6, Q8NI35): below the threshold
pKd (PTPN13_1, Q12923): below the threshold
pKd (LIN7C, Q9NUP9): below the threshold
pKd (DLG3_2, Q92796): 3.54
pKd (LAP2, Q96RT1): below the threshold
pKd (PICK1, Q9NRD5): 4.09
pKd (Inadl_1, Q8NI35): below the threshold
pKd (Inadl_5, Q8NI35): below the threshold
pKd (SCRIB_3, Q14160): 3.58
pKd (RADIL, Q96JH8): below the threshold
pKd (MAGI2_5, Q86UL8): below the threshold
pKd (FRMPD2_3, Q68DX3): below the threshold
pKd (DLG3_3, Q92796): below the threshold
pKd (MAST1, Q9Y2H9): below the threshold
pKd (Inadl_4, Q8NI35): below the threshold
pKd (MPP7, Q5T2T1): below the threshold
pKd (IL16_3, Q14005): below the threshold
pKd (DFNB31_2, Q9P202): below the threshold
pKd (MAGI2_2, Q86UL8): below the threshold
pKd (TX1BP3, O14907): below the threshold
pKd (DFNB31_3, Q9P202): below the threshold
pKd (GRIP2_4, Q9C0E4): below the threshold
pKd (PDZD2_2, O15018): below the threshold
pKd (DLG4_3, P78352): below the threshold
pKd (NOS1, P29475): below the threshold
pKd (HTRA4, P83105): below the threshold
pKd (HTRA2, O43464): below the threshold
